Assay results as given in publication PMC8200828, “Phylogenetic and Structural Analysis of NIN-Like Proteins With a Type I/II PB1 Domain That Regulates Oligomerization for Nitrate Response” (Frontiers in Plant Science, 2021).

Experiments:
[1] = target: the molecule itself; experiment: dynamic light scattering; protein at 2 mg/mL, after SEC, 25 °C; self-association
[2] = target: the molecule itself; experiment: SEC; Superdex S-75 in buffer C (20 mM Tris pH 8.8, 0.5 M NaCl, 10% glycerol, 5 mM GSH, 1 mM TCEP), calibrated with gel filtration standard markers; self-association

B1: Arabidopsis thaliana NLP7 (AtNLP7) PB1 domain, wild type (domain or fragment, UniProt Q84TH9 863-945, looked up)
chain: TVTIKASYKDDIIRFRISSGSGIMELKDEVAKRLKVDAGTFDIKYLDDDNEWVLIACDADLQECLEIPRSSRTKIVRLLVHDV
notes: NIN-like protein 7 (AtNLP7), Arabidopsis thaliana, PB1 domain at the C-terminus of AtNLP7; PCR-amplified from plasmid pDL2Nx-NLP7 PB1 with the printed primers PB1-EcoRI and PB1-HindIII, subcloned into pET28a; A thrombin cleavage site follows the N-terminal His6 tag; no cleavage step is described and the purified protein is called 6xHis-NLP7 PB1 (15.6 kDa); also called NLP7 PB1wt; 6xHis-NLP7 PB1 …
stoichiometry N [1]: 4
stoichiometry N [2]: 2
